Measured values reported in US20210087265A1 (PROGASTRINE ET CANCERS S R L, published 2021).

Biological target: T1, human progastrin (human, UniProt P01350 22-101)
T1 construct: 80-residue progastrin, i.e. preprogastrin (AAB19304.1) without its 21-residue signal peptide; also called hPG; PG
T1 sequence: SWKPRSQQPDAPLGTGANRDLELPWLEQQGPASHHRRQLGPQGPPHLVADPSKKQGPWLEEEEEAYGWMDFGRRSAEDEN
Test: epitope mapping (method not described)

B1: mAb4 (antibody, V domains shown)
VH: QVQLQQSGAELMKPGASVKISCKATGYTFSSSWIEWLKQRPGHGLEWIGEFLPGSGSTDYNEKFKGKATFTADTSSDTAYMLLSSLTSEDSAVYYCATDGNYDWFAYWGQGTLVTVSA
VL: DLVMTQTPLSLPVSLGDQASISCRSSQSLVHSSGVTYLHWYLQKPGQSPKLLIYKVSNRFSGVPDRFSGSGSGTDFTLKISRVEAEDLGVYFCSQSTHVPPTFGSGTKLEIK
notes: Murine monoclonal antibody from a hybridoma; also called hybridoma 20D2C3G2
- binding result: binds

B2: mAb16 (antibody, V domains shown)
VH: QVQLQQSGAELVKPGASVKLSCKASGYTFTSYYMYWVKQRPGQGLEWIGEINPSNGGTNFNEKFKSKATLTVDKSSSTAYMQLSSLTSEDSAVYYCTRGGYYPFDYWGQGTTLTVSS
VL: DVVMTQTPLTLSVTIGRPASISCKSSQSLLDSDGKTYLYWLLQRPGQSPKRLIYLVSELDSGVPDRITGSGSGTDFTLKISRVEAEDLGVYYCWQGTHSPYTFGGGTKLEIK
notes: Murine monoclonal antibody from a hybridoma; also called hybridoma 1E9D9B6
- binding result: binds

B3: mAb13 (antibody, V domains shown)
VH: EVQLVESGGGLVQPGGSLKLSCAASGFIFSSYGMSWVRQSPDRRLELVASINTFGDRTYYPDSVKGRFTISRDNAKNTLYLQMTSLKSEDTAIYYCARGTGTYWGQGTTLTVSS
VL: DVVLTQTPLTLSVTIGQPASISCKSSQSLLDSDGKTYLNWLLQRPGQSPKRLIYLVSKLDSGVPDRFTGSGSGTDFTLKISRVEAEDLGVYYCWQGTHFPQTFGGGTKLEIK
notes: Murine monoclonal antibody from a hybridoma; also called hybridoma 2C6C3C7
- binding result: binds

B4: mAb19 (antibody, V domains shown)
VH: DVQLQESGPGLVKPSQSLSLTCTVTGYSITSDYAWNWIRQFPGNKLEWMGYISFSGYTSYNPSLKSRISVTRDTSRNQFFLQLTSVTTEDTATYYCAREVNYGDSYHFDYWGQGTIVTVSS
VL: QLALTQSSSASFSLGASAKLTCTLSSQHRTYTIEWYQQQSLKPPKYVMEVKKDGSHSTGHGIPDRFSGSSSGADRYLSISNIQPEDEAIYICGVGDAIKGQSVFVFGGGTKVTVL
notes: Murine monoclonal antibody from a hybridoma; also called hybridoma 1B3B4F11
- binding result: binds

B5: mAb3 (antibody, V domains shown)
VH: EVQLQQSGTVLARPGASVKMSCKASGYIFTSYWVHWVKQRPGQGLEWIGGFYPGNSDSRYNQKFKGKATLTAVTSASTAYMDLSSLTNEDSAVYFCTRRDSPQYWGQGTTLTVSS
VL: DVLMTQTPLSLPVSLGDQASISCRSSQSIVHSNGNTYLEWYLQKPGQSPKLLIYKVSNRFSGVPDRFSGSGSGTDFTLKISRLEAEDLGVYYCFQGSHVPFTFGGGTKLEIK
notes: Murine monoclonal antibody from a hybridoma; also called hybridoma 6B5B11C10
- binding result: binds
